Test results: paper PMC4869175, “Evidence that phytochrome functions as a protein kinase in plant light signalling” (Nature Communications, 2016)

B1: Avena sativa phytochrome A, full-length wild type (natural protein, UniProt P06593 1-1129, looked up)
chain: MSSSRPASSSSSRNRQSSQARVLAQTTLDAELNAEYEESGDSFDYSKLVEAQRDGPPVQQGRSEKVIAYLQHIQKGKLIQTFGCLLALDEKSFNVIAFSENAPEMLTTVSHAVPSVDDPPRLGIGTNVRSLFSDQGATALHKALGFADVSLLNPILVQCKTSGKPFYAIVHRATGCLVVDFEPVKPTEFPATAAGALQSYKLAAKAISKIQSLPGGSMEVLCNTVVKEVFDLTGYDRVMAYKFHEDDHGEVFSEITKPGLEPYLGLHYPATDIPQAARLLFMKNKVRMICDCRARSIKVIEAEALPFDISLCGSALRAPHSCHLQYMENMNSIASLVMAVVVNENEEDDEAESEQPAQQQKKKKLWGLLVCHHESPRYVPFPLRYACEFLAQVFAVHVNREFELEKQLREKNILKMQTMLSDMLFREASPLTIVSGTPNIMDLVKCDGAALLYGGKVWRLRNAPTESQIHDIAFWLSDVHRDSTGLSTDSLHDAGYPGAAALGDMICGMAVAKINSKDILFWFRSHTAAEIRWGGAKNDPSDMDDSRRMHPRLSFKAFLEVVKMKSLPWSDYEMDAIHSLQLILRGTLNDASKPKREASLDNQIGDLKLDGLAELQAVTSEMVRLMETATVPILAVDGNGLVNGWNQKAAELTGLRVDDAIGRHILTLVEDSSVPVVQRMLYLALQGKEEKEVRFEVKTHGPKRDDGPVILVVNACASRDLHDHVVGVCFVAQDMTVHKLVMDKFTRVEGDYKAIIHNPNPLIPPIFGADEFGWCSEWNAAMTKLTGWNRDEVLDKMLLGEVFDSSNASCPLKNRDAFVSLCVLINSALAGEETEKAPFGFFDRSGKYIECLLSANRKENEGGLITGVFCFIHVASHELQHALQVQQASEQTSLKRLKAFSYMRHAINNPLSGMLYSRKALKNTDLNEEQMKQIHVGDNCHHQINKILADLDQDSITEKSSCLDLEMAEFLLQDVVVAAVSQVLITCQGKGIRISCNLPERFMKQSVYGDGVRLQQILSDFLFISVKFSPVGGSVEISSKLTKNSIGENLHLIDLELRIKHQGLGVPAELMAQMFEEDNKEQSEEGLSLLVSRNLLRLMNGDVRHLREAGVSTFIITAELASAPTAMGQ
modifications: phycocyanobilin chromophore assembled (chromophore-binding site C322)
notes: Avena sativa (oat) phytochrome A, full-length gene AsPHYA; 1129 residues by the printed construct limits (66-1129aa); Used as Pr (far-red irradiated) and Pfr (red irradiated) forms; also called AsphyA; FL-AsphyA; source: phycocyanobilin added in vitro

Key:
[1] = target: the molecule itself; experiment: SEC; size-exclusion chromatography of purified full-length AsphyA proteins; molecular masses estimated
[2] = target: B1; experiment: pull-down; GST/strep-fused interacting protein (1.0 μg) held on glutathione resin, phytochrome (1.0 μg) in solution, Pr and Pfr forms both tested; 60 min at 4 °C in pull-down buffer (100 mM Tris-HCl pH 7.8, 1 mM EDTA, 150 mM NaCl, 100 μg/ml BSA); western blot with oat22 and anti-GST; settings: both partners purified

Binder	stoichiometry N [1]	other results
B1	–	binding result [1]: binds
AsphyA T418D, full length (natural protein, Avena sativa, UniProt P06593 1-1129, looked up, phycocyanobilin chromophore assembled, Avena sativa phytochrome A, full length, with T418D; source: phycocyanobilin added in vitro) MSSSRPASSSSSRNRQSSQARVLAQTTLDAELNAEYEESGDSFDYSKLVEAQRDGPPVQQGRSEKVIAYLQHIQKGKLIQTFGCLLALDEKSFNVIAFSENAPEMLTTVSHAVPSVDDPPRLGIGTNVRSLFSDQGATALHKALGFADVSLLNPILVQCKTSGKPFYAIVHRATGCLVVDFEPVKPTEFPATAAGALQSYKLAAKAISKIQSLPGGSMEVLCNTVVKEVFDLTGYDRVMAYKFHEDDHGEVFSEITKPGLEPYLGLHYPATDIPQAARLLFMKNKVRMICDCRARSIKVIEAEALPFDISLCGSALRAPHSCHLQYMENMNSIASLVMAVVVNENEEDDEAESEQPAQQQKKKKLWGLLVCHHESPRYVPFPLRYACEFLAQVFAVHVNREFELEKQLREKNILKMQDMLSDMLFREASPLTIVSGTPNIMDLVKCDGAALLYGGKVWRLRNAPTESQIHDIAFWLSDVHRDSTGLSTDSLHDAGYPGAAALGDMICGMAVAKINSKDILFWFRSHTAAEIRWGGAKNDPSDMDDSRRMHPRLSFKAFLEVVKMKSLPWSDYEMDAIHSLQLILRGTLNDASKPKREASLDNQIGDLKLDGLAELQAVTSEMVRLMETATVPILAVDGNGLVNGWNQKAAELTGLRVDDAIGRHILTLVEDSSVPVVQRMLYLALQGKEEKEVRFEVKTHGPKRDDGPVILVVNACASRDLHDHVVGVCFVAQDMTVHKLVMDKFTRVEGDYKAIIHNPNPLIPPIFGADEFGWCSEWNAAMTKLTGWNRDEVLDKMLLGEVFDSSNASCPLKNRDAFVSLCVLINSALAGEETEKAPFGFFDRSGKYIECLLSANRKENEGGLITGVFCFIHVASHELQHALQVQQASEQTSLKRLKAFSYMRHAINNPLSGMLYSRKALKNTDLNEEQMKQIHVGDNCHHQINKILADLDQDSITEKSSCLDLEMAEFLLQDVVVAAVSQVLITCQGKGIRISCNLPERFMKQSVYGDGVRLQQILSDFLFISVKFSPVGGSVEISSKLTKNSIGENLHLIDLELRIKHQGLGVPAELMAQMFEEDNKEQSEEGLSLLVSRNLLRLMNGDVRHLREAGVSTFIITAELASAPTAMGQ	2	–
GST/strep-fused Arabidopsis PIF4 (natural protein, UniProt Q8W2F3 1-430, looked up, Arabidopsis PIF4 (NM_180050); not shown: GST, N-terminal, kept) MEHQGWSFEENYSLSTNRRSIRPQDELVELLWRDGQVVLQSQTHREQTQTQKQDHHEEALRSSTFLEDQETVSWIQYPPDEDPFEPDDFSSHFFSTMDPLQRPTSETVKPKSSPEPPQVMVKPKACPDPPPQVMPPPKFRLTNSSSGIRETEMEQYSVTTVGPSHCGSNPSQNDLDVSMSHDRSKNIEEKLNPNASSSSGGSSGCSFGKDIKEMASGRCITTDRKRKRINHTDESVSLSDAIGNKSNQRSGSNRRSRAAEVHNLSERRRRDRINERMKALQELIPHCSKTDKASILDEAIDYLKSLQLQLQVMWMGSGMAAAAASAPMMFPGVQPQQFIRQIQSPVQLPRFPVMDQSAIQNNPGLVCQNPVQNQIISDRFARYIGGFPHMQAATQMQPMEMLRFSSPAGQQSQQPSSVPTKTTDGSRLDH	–	binding result [2]: binds
AsphyA D422R, full length (natural protein, Avena sativa, UniProt P06593 1-1129, looked up, phycocyanobilin chromophore assembled, Avena sativa phytochrome A, full length, with D422R; source: phycocyanobilin added in vitro) MSSSRPASSSSSRNRQSSQARVLAQTTLDAELNAEYEESGDSFDYSKLVEAQRDGPPVQQGRSEKVIAYLQHIQKGKLIQTFGCLLALDEKSFNVIAFSENAPEMLTTVSHAVPSVDDPPRLGIGTNVRSLFSDQGATALHKALGFADVSLLNPILVQCKTSGKPFYAIVHRATGCLVVDFEPVKPTEFPATAAGALQSYKLAAKAISKIQSLPGGSMEVLCNTVVKEVFDLTGYDRVMAYKFHEDDHGEVFSEITKPGLEPYLGLHYPATDIPQAARLLFMKNKVRMICDCRARSIKVIEAEALPFDISLCGSALRAPHSCHLQYMENMNSIASLVMAVVVNENEEDDEAESEQPAQQQKKKKLWGLLVCHHESPRYVPFPLRYACEFLAQVFAVHVNREFELEKQLREKNILKMQTMLSRMLFREASPLTIVSGTPNIMDLVKCDGAALLYGGKVWRLRNAPTESQIHDIAFWLSDVHRDSTGLSTDSLHDAGYPGAAALGDMICGMAVAKINSKDILFWFRSHTAAEIRWGGAKNDPSDMDDSRRMHPRLSFKAFLEVVKMKSLPWSDYEMDAIHSLQLILRGTLNDASKPKREASLDNQIGDLKLDGLAELQAVTSEMVRLMETATVPILAVDGNGLVNGWNQKAAELTGLRVDDAIGRHILTLVEDSSVPVVQRMLYLALQGKEEKEVRFEVKTHGPKRDDGPVILVVNACASRDLHDHVVGVCFVAQDMTVHKLVMDKFTRVEGDYKAIIHNPNPLIPPIFGADEFGWCSEWNAAMTKLTGWNRDEVLDKMLLGEVFDSSNASCPLKNRDAFVSLCVLINSALAGEETEKAPFGFFDRSGKYIECLLSANRKENEGGLITGVFCFIHVASHELQHALQVQQASEQTSLKRLKAFSYMRHAINNPLSGMLYSRKALKNTDLNEEQMKQIHVGDNCHHQINKILADLDQDSITEKSSCLDLEMAEFLLQDVVVAAVSQVLITCQGKGIRISCNLPERFMKQSVYGDGVRLQQILSDFLFISVKFSPVGGSVEISSKLTKNSIGENLHLIDLELRIKHQGLGVPAELMAQMFEEDNKEQSEEGLSLLVSRNLLRLMNGDVRHLREAGVSTFIITAELASAPTAMGQ	2	–
AsphyA K411L, full length (natural protein, Avena sativa, UniProt P06593 1-1129, looked up, phycocyanobilin chromophore assembled, Avena sativa phytochrome A, full length, with K411L; source: phycocyanobilin added in vitro) MSSSRPASSSSSRNRQSSQARVLAQTTLDAELNAEYEESGDSFDYSKLVEAQRDGPPVQQGRSEKVIAYLQHIQKGKLIQTFGCLLALDEKSFNVIAFSENAPEMLTTVSHAVPSVDDPPRLGIGTNVRSLFSDQGATALHKALGFADVSLLNPILVQCKTSGKPFYAIVHRATGCLVVDFEPVKPTEFPATAAGALQSYKLAAKAISKIQSLPGGSMEVLCNTVVKEVFDLTGYDRVMAYKFHEDDHGEVFSEITKPGLEPYLGLHYPATDIPQAARLLFMKNKVRMICDCRARSIKVIEAEALPFDISLCGSALRAPHSCHLQYMENMNSIASLVMAVVVNENEEDDEAESEQPAQQQKKKKLWGLLVCHHESPRYVPFPLRYACEFLAQVFAVHVNREFELEKQLRELNILKMQTMLSDMLFREASPLTIVSGTPNIMDLVKCDGAALLYGGKVWRLRNAPTESQIHDIAFWLSDVHRDSTGLSTDSLHDAGYPGAAALGDMICGMAVAKINSKDILFWFRSHTAAEIRWGGAKNDPSDMDDSRRMHPRLSFKAFLEVVKMKSLPWSDYEMDAIHSLQLILRGTLNDASKPKREASLDNQIGDLKLDGLAELQAVTSEMVRLMETATVPILAVDGNGLVNGWNQKAAELTGLRVDDAIGRHILTLVEDSSVPVVQRMLYLALQGKEEKEVRFEVKTHGPKRDDGPVILVVNACASRDLHDHVVGVCFVAQDMTVHKLVMDKFTRVEGDYKAIIHNPNPLIPPIFGADEFGWCSEWNAAMTKLTGWNRDEVLDKMLLGEVFDSSNASCPLKNRDAFVSLCVLINSALAGEETEKAPFGFFDRSGKYIECLLSANRKENEGGLITGVFCFIHVASHELQHALQVQQASEQTSLKRLKAFSYMRHAINNPLSGMLYSRKALKNTDLNEEQMKQIHVGDNCHHQINKILADLDQDSITEKSSCLDLEMAEFLLQDVVVAAVSQVLITCQGKGIRISCNLPERFMKQSVYGDGVRLQQILSDFLFISVKFSPVGGSVEISSKLTKNSIGENLHLIDLELRIKHQGLGVPAELMAQMFEEDNKEQSEEGLSLLVSRNLLRLMNGDVRHLREAGVSTFIITAELASAPTAMGQ	2	–
